Measured values reported in patent US20210061907A1.
Changes are numbered by the printed parent chain.

B1: H10 affinity-matured antibody fragment, kappa light chain fusion protein (scFv, V domains shown)
VH: EVQLLESGGGLVQPGGSLRLSCAASGFTFSDYYMSWVRQAPGKGLEWVSGIYYDGTNVYYADSVKGRFTISRDNSKNTLYLQMNSLRAEDTAVYYCAKGPLFCNDRTCSYYYAMDVWGQGTLVTVSS
VL: QSVLTQPPSASGTPGQRVTISCLGGYSNIGSNAVYWYQQLPGTAPKLLIYDDNHRPSGVPDRFSGSKSGTSASLAISGLRSEDEADYYCGTWDYSLSGYVLGGGTKLTVL
B2: 2F1 affinity-matured antibody fragment, kappa light chain fusion protein (scFv, V domains shown)
VH: B1 VH with T56S, N57S, V58Q, Y59G, Y60W, A61S, D62S
VL: B1 VL with L23Y, G25Q, Y26P
B3: T3C1 affinity-matured antibody fragment, kappa light chain fusion protein (scFv, V domains shown)
VH: B1 VH with T56S, N57A, V58S
VL: B1 VL with L23S, Y26P
B4: T3H9 affinity-matured antibody fragment, kappa light chain fusion protein (scFv, V domains shown)
VH: B1 VH with G55A, T56S, N57A, V58E
VL: B1 VL with L23S, G25M, Y26L
B5: C2 affinity-matured antibody fragment, kappa light chain fusion protein (scFv, V domains shown)
VH: B1 VH with V58Q
VL: B1 VL with L23T, Y26L
B6: E3 affinity-matured antibody fragment, kappa light chain fusion protein (scFv, V domains shown)
VH: B1 VH with N57A, V58M
VL: B1 VL with L23S
B7: D7 affinity-matured antibody fragment, kappa light chain fusion protein (scFv, V domains shown)
VH: B1 VH with N57A, V58F
VL: B1 VL with L23E, G25Q, Y26P
B8: D10 affinity-matured antibody fragment, kappa light chain fusion protein (scFv, V domains shown)
VH: B1 VH with T56S, N57A
VL: B1 VL with L23W, G25D
B9: E12 affinity-matured antibody fragment, kappa light chain fusion protein (scFv, V domains shown)
VH: B1 VH with G55S, T56F, N57V, V58P
VL: B1 VL with L23A, G25S, Y26A

Tests used:
[1] = target: CD19-ECD Fc fusion protein (human) (UniProt P15391); assay: ELISA, plates coated with CD19-ECD Fc, dose series of purified kappa fusion antibody fragment, OD450, GraphPad Prism
[2] = target: CD19 on the CD19-positive RaJi cell line (UniProt P15391); assay: flow cytometry on the CD19-positive RaJi cell line, dose series, anti-human IgG-FITC, GraphPad Prism

| Binder | EC50 [1] [nM] | EC50 [2] [nM] |
| --- | --- | --- |
| B1 | 3.31 | – |
| B2 | 1.6 | 10.5 |
| B3 | 2.4 | – |
| B4 | 2.32 | – |
| B5 | 5.81 | 61.2 |
| B6 | 1.87 | 26.1 |
| B7 | 3.2 | – |
| B8 | 2.48 | – |
| B9 | 2.56 | – |
